T1: his-tagged human CDH6 extracellular region protein (hCDH6 ECD-his) (human, UniProt P55285 19-615)
T1 construct: also called Human CDH6-his; hCDH6-his; not shown: his tag
T1 sequence: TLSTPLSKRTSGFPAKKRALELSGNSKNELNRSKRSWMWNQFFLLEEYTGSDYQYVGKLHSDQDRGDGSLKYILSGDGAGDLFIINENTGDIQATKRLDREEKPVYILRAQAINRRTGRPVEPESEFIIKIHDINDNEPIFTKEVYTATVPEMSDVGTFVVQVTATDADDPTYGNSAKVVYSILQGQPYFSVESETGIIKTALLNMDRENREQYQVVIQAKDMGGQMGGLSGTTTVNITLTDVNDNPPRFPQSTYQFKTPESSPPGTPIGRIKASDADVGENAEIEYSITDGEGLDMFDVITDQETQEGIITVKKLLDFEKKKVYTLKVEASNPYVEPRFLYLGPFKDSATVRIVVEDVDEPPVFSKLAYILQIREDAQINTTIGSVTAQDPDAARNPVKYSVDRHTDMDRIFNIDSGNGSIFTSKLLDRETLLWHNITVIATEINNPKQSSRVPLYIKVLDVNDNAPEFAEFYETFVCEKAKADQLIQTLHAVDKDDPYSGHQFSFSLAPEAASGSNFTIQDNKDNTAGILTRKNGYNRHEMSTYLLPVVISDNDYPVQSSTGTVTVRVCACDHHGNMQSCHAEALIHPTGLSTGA

B1: CHI-CDH6-12 (antibody, human IgG1, kappa, V domains shown)
VH: EVNLVESGGGLVQPGDSLTLSCSASGFTFTDYYMSWVRQFPGKALEWLALIRNKANSYTTEYSASVKGRFTISRDNSQSILYLQMNALRAEDSATYYCARDSYYSHDGFAYWGQGTLVTVSA
VL: DIVLTQSPASLAVSLGQRATISCRASKSVSTSSYTYMHWYQQKPGQPPKLLIKFASYLESGVPARFSGSGSGTDFTLNIHPVEEEDAATYYCQHSREFPFTFGTGTKLEIKR
notes: also called CH1-CDH6-12; chimeric antibody of murine CDH6-12
B2: DS-H01L02 (antibody, human IgG1, kappa, V domains shown)
VH: EVQLVQSGAEVKKPGASVKVSCKASGYTFTRNFMHWVRQAPGQGLEWMGWIYPGDGETEYAQKFQGRVTITADTSTSTAYMELSSLRSEDTAVYYCARGVYGGFAGGYFDFWGQGTLVTVSS
VL: DIQMTQSPSSLSASVGDRVTITCKASQNIYKNLAWYQQKPGKAPKLLIYDANTLQTGVPSRFSGSGSGSDFTLTISSLQPEDFATYFCQQYYSGWAFGQGTKVEIKR
notes: Positive control, variable regions from WO2018212136A1; also called positive control anti-human CDH6 antibody

Columns and labels:
[1] = target: T1, his-tagged human CDH6 extracellular …; assay: ELISA, coated antigen; ELISA, hCDH6 ECD-his coated at 1 µg/mL, antibody in solution
Description: (§1) Human CDH6 protein (hCDH6 ECD-his, conventionally synthesized), monkey CDH6 protein (cynoCDH6 ECD-his, conventionally synthesized; the cynoCDH6 ECD sequence was derived from Uniprot #A0A2K5TW62 (19-615)), and murine CDH6 protein (mCDH6 ECD-his, conventionally synthesized; the mCDH6 ECD sequence was derived from Uniprot #P97326 (19-615)) were diluted with PBS to a final concentration of 1 μg/mL, and added to a 96-well ELISA plate at 100 μL/well. The plate was incubated at 4° C. overnight. The next day, the plate was washed 3 times with a plate washing solution (PBS+0.01% (v/v) Tween 20), and a blocking buffer (PBS+0.01% (v/v) Tween 20+2% (w/w) BSA) was added for blocking at room temperature for 2 h. The blocking buffer was discarded, and the plate was washed 3 times. The chimeric antibodies were diluted with 1% BSA+PBS (purchased from Cytiva, Cat. No. SH30264.01) and added to the 96-well plate at 50 μL/well. After incubation at 37° C. for 2 h, the plate was washed 3 times with a plate washing solution. […] The plate was incubated at 37° C. for 1 h and then washed 5 times with a plate washing solution. A TMB substrate (purchased from Seracare, Cat. No. 5120-0077) was added at 50 μL/well and incubated at room temperature for 10 min, then a stop solution (1.0 N HCl) was added at 50 μL/well. OD450 nm values were read using a microplate reader (Biotek). Analysis was performed by the GraphPad Prism software, data were fitted, and EC50 values were calculated. The chimeric antibodies tested all had strong binding to the human CDH6 protein, the monkey CDH6 protein, and the murine CDH6 protein.

[2] = target: T1, his-tagged human CDH6 extracellular …; assay: ELISA, coated antigen; ELISA, coated hCDH6 ECD-his; plateau signal
Description: as §1

| Binder | EC50 [1] [nM] | Max OD450 [2] [OD450] |
| --- | --- | --- |
| B1 | 0.105 | 1.82 |
| B2 | 0.168 | 1.89 |
